Source: patent US20250197488A1 (MABWELL SHANGHAI BIOSCIENCE, published 2025)

Experiments:
[1] = molecular target: T1, IL-11 (Cat. 12225-HNCE, Sino Biological Inc.) (UniProt P20809 22-199, limits assumed); experiment: cell-based or functional assay
T1 sequence (looked up): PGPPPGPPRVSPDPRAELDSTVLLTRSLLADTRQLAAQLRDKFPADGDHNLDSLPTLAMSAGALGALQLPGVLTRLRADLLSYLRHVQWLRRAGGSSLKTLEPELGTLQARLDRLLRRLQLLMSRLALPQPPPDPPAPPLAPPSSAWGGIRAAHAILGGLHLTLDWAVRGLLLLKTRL

[2] = molecular target: T2, human IL-11 (AAH12506.1, Pro22-Leu199) (human, UniProt P20809 22-199); experiment: BLI (Octet), antibody captured, human IL-11 in solution
T2 construct: The range Pro22-Leu199 counts on AAH12506.1; The Octet runs say only 'human IL-11'; also called hIL-11
T2 chain: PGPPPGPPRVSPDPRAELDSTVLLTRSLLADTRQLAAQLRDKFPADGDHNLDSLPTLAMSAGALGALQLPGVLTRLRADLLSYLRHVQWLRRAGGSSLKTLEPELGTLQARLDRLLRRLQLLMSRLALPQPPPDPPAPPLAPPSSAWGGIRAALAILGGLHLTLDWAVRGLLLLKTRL
Method in brief: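 Antibodies, either purified or as hybridoma supernatant and diluted in HBS-EP+ buffer, were loaded onto anti-mouse IgG Fc (AMC) or anti-human Fc (AHC) biosensors in a Fortebio Octet QKe System for bio-layer interferometry. Human IL-11 in HBS-EP+ buffer was then passed over the sensors at 300 nM, with association and dissociation each lasting 300 seconds. After blank subtraction, the curves were fitted to a 1:1 Langmuir binding model to obtain kon, koff and Kd.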

B1: hz18A10-VHm19 + hz18A10-VLm19 (antibody, human IgG1, kappa, V domains shown)
VH: EVQLVQSGAEVKKPGASVKVSCKASGYTFTHYNMDWVRQAPGQGLEWMGTIYPGNADTSYNQKFKGRVTMTRDTSTSTVYMELSSLRSEDTAVYYCARGDLYALDYWGQGTLVTVSS
VL: DIQMTQSPSSLSASVGDRVTITCKASQSVYRDVAWYQQKPGKAPKLLIYSASNRYTGVPSRFSGSGSGTDFTFTISSLQPEDIATYYCQHDYSSPYTFGQGTKLEIKR
notes: named hz18A10m19; also called hz18A10m19
[1]
  Blocking activity (IC50), STAT3-luc reporter: 0.13 µg/mL
[2]
  Kd: 0.101 nM
  koff: 0.0001 s⁻¹
  kon: 993000 M⁻¹ s⁻¹

B2: hz18A10-VH + hz18A10-VLm9 (antibody, V domains shown)
VH: EVQLVQSGAEVKKPGASVKVSCKASGYTFTTYNMDWVRQAPGQGLEWMGTIYPGNGDTSYNQKFKGRVTMTRDTSTSTVYMELSSLRSEDTAVYYCARGDLYALDYWGQGTLVTVSS
VL: DIQMTQSPSSLSASVGDRVTITCKASQSVYSDVAWYQQKPGKAPKLLIYSASNRYTGVPSRFSGSGSGTDFTFTISSLQPEDIATYYCQHDYSSPYTFGQGTKLEIK
notes: Constant regions not restated for this antibody
[1]
  Blocking activity (IC50), STAT3-luc reporter: 1.25 µg/mL
[2]
  Kd: 0.54 nM
  koff: 0.000463 s⁻¹
  kon: 859000 M⁻¹ s⁻¹

B3: hz18A10-VH + hz18A10-VLm1 (antibody, V domains shown)
VH: EVQLVQSGAEVKKPGASVKVSCKASGYTFTTYNMDWVRQAPGQGLEWMGTIYPGNGDTSYNQKFKGRVTMTRDTSTSTVYMELSSLRSEDTAVYYCARGDLYALDYWGQGTLVTVSS
VL: DIQMTQSPSSLSASVGDRVTITCKASKSVSNDVAWYQQKPGKAPKLLIYSASNRYTGVPSRFSGSGSGTDFTFTISSLQPEDIATYYCQHDYSSPYTFGQGTKLEIK
notes: as for B2
[1]
  Blocking activity (IC50), STAT3-luc reporter: 19.3 µg/mL
[2]
  Kd: 4.61 nM
  koff: 0.00331 s⁻¹
  kon: 718000 M⁻¹ s⁻¹

B4: hz18A10-VH + hz18A10-VLm2 (antibody, V domains shown)
VH: EVQLVQSGAEVKKPGASVKVSCKASGYTFTTYNMDWVRQAPGQGLEWMGTIYPGNGDTSYNQKFKGRVTMTRDTSTSTVYMELSSLRSEDTAVYYCARGDLYALDYWGQGTLVTVSS
VL: DIQMTQSPSSLSASVGDRVTITCKASYSVSNDVAWYQQKPGKAPKLLIYSASNRYTGVPSRFSGSGSGTDFTFTISSLQPEDIATYYCQHDYSSPYTFGQGTKLEIK
notes: as for B2
[1]
  Blocking activity (IC50), STAT3-luc reporter: 17.4 µg/mL
[2]
  Kd: 2.3 nM
  koff: 0.00185 s⁻¹
  kon: 806000 M⁻¹ s⁻¹

B5: hz18A10-VH + hz18A10-VLm3 (antibody, V domains shown)
VH: EVQLVQSGAEVKKPGASVKVSCKASGYTFTTYNMDWVRQAPGQGLEWMGTIYPGNGDTSYNQKFKGRVTMTRDTSTSTVYMELSSLRSEDTAVYYCARGDLYALDYWGQGTLVTVSS
VL: DIQMTQSPSSLSASVGDRVTITCKASHSVSNDVAWYQQKPGKAPKLLIYSASNRYTGVPSRFSGSGSGTDFTFTISSLQPEDIATYYCQHDYSSPYTFGQGTKLEIK
notes: as for B2
[1]
  Blocking activity (IC50), STAT3-luc reporter: 15.2 µg/mL
[2]
  Kd: 3.94 nM
  koff: 0.00277 s⁻¹
  kon: 704000 M⁻¹ s⁻¹

B6: hz18A10-VH + hz18A10-VLm4 (antibody, V domains shown)
VH: EVQLVQSGAEVKKPGASVKVSCKASGYTFTTYNMDWVRQAPGQGLEWMGTIYPGNGDTSYNQKFKGRVTMTRDTSTSTVYMELSSLRSEDTAVYYCARGDLYALDYWGQGTLVTVSS
VL: DIQMTQSPSSLSASVGDRVTITCKASQFVSNDVAWYQQKPGKAPKLLIYSASNRYTGVPSRFSGSGSGTDFTFTISSLQPEDIATYYCQHDYSSPYTFGQGTKLEIK
notes: as for B2
[1]
  Blocking activity (IC50), STAT3-luc reporter: 16.4 µg/mL
[2]
  Kd: 3.12 nM
  koff: 0.00237 s⁻¹
  kon: 760000 M⁻¹ s⁻¹

B7: hz18A10-VH + hz18A10-VLm5 (antibody, V domains shown)
VH: EVQLVQSGAEVKKPGASVKVSCKASGYTFTTYNMDWVRQAPGQGLEWMGTIYPGNGDTSYNQKFKGRVTMTRDTSTSTVYMELSSLRSEDTAVYYCARGDLYALDYWGQGTLVTVSS
VL: DIQMTQSPSSLSASVGDRVTITCKASQSVSNDIAWYQQKPGKAPKLLIYSASNRYTGVPSRFSGSGSGTDFTFTISSLQPEDIATYYCQHDYSSPYTFGQGTKLEIK
notes: as for B2
[1]
  Blocking activity (IC50), STAT3-luc reporter: 18.1 µg/mL
[2]
  Kd: 4.09 nM
  koff: 0.00281 s⁻¹
  kon: 688000 M⁻¹ s⁻¹

B8: hz18A10-VH + hz18A10-VLm6 (antibody, V domains shown)
VH: EVQLVQSGAEVKKPGASVKVSCKASGYTFTTYNMDWVRQAPGQGLEWMGTIYPGNGDTSYNQKFKGRVTMTRDTSTSTVYMELSSLRSEDTAVYYCARGDLYALDYWGQGTLVTVSS
VL: DIQMTQSPSSLSASVGDRVTITCKASQSVFHDVAWYQQKPGKAPKLLIYSASNRYTGVPSRFSGSGSGTDFTFTISSLQPEDIATYYCQHDYSSPYTFGQGTKLEIK
notes: as for B2
[1]
  Blocking activity (IC50), STAT3-luc reporter: 2.6 µg/mL
[2]
  Kd: 0.877 nM
  koff: 0.000794 s⁻¹
  kon: 905000 M⁻¹ s⁻¹

B9: hz18A10-VH + hz18A10-VLm8 (antibody, V domains shown)
VH: EVQLVQSGAEVKKPGASVKVSCKASGYTFTTYNMDWVRQAPGQGLEWMGTIYPGNGDTSYNQKFKGRVTMTRDTSTSTVYMELSSLRSEDTAVYYCARGDLYALDYWGQGTLVTVSS
VL: DIQMTQSPSSLSASVGDRVTITCKASQSVYHDVAWYQQKPGKAPKLLIYSASNRYTGVPSRFSGSGSGTDFTFTISSLQPEDIATYYCQHDYSSPYTFGQGTKLEIK
notes: as for B2
[1]
  Blocking activity (IC50), STAT3-luc reporter: 3.12 µg/mL
[2]
  Kd: 0.803 nM
  koff: 0.000746 s⁻¹
  kon: 929000 M⁻¹ s⁻¹

B10: hz18A10-VH + hz18A10-VLm10 (antibody, V domains shown)
VH: EVQLVQSGAEVKKPGASVKVSCKASGYTFTTYNMDWVRQAPGQGLEWMGTIYPGNGDTSYNQKFKGRVTMTRDTSTSTVYMELSSLRSEDTAVYYCARGDLYALDYWGQGTLVTVSS
VL: DIQMTQSPSSLSASVGDRVTITCKASQSVSNDLAWYQQKPGKAPKLLIYSASNRYTGVPSRFSGSGSGTDFTFTISSLQPEDIATYYCQHDYSSPYTFGQGTKLEIK
notes: as for B2
[1]
  Blocking activity (IC50), STAT3-luc reporter: 12.7 µg/mL
[2]
  Kd: 4.06 nM
  koff: 0.00295 s⁻¹
  kon: 727000 M⁻¹ s⁻¹

B11: hz18A10-VH + hz18A10-VLm11 (antibody, V domains shown)
VH: EVQLVQSGAEVKKPGASVKVSCKASGYTFTTYNMDWVRQAPGQGLEWMGTIYPGNGDTSYNQKFKGRVTMTRDTSTSTVYMELSSLRSEDTAVYYCARGDLYALDYWGQGTLVTVSS
VL: DIQMTQSPSSLSASVGDRVTITCKASQSVSNDVAWYQQKPGKAPKLLIYRASNRYTGVPSRFSGSGSGTDFTFTISSLQPEDIATYYCQHDYSSPYTFGQGTKLEIK
notes: as for B2
[1]
  Blocking activity (IC50), STAT3-luc reporter: 4.07 µg/mL
[2]
  Kd: 1.8 nM
  koff: 0.00134 s⁻¹
  kon: 747000 M⁻¹ s⁻¹

B12: hz18A10-VH + hz18A10-VLm12 (antibody, V domains shown)
VH: EVQLVQSGAEVKKPGASVKVSCKASGYTFTTYNMDWVRQAPGQGLEWMGTIYPGNGDTSYNQKFKGRVTMTRDTSTSTVYMELSSLRSEDTAVYYCARGDLYALDYWGQGTLVTVSS
VL: DIQMTQSPSSLSASVGDRVTITCKASQSVSNDVAWYQQKPGKAPKLLIYSASSRYTGVPSRFSGSGSGTDFTFTISSLQPEDIATYYCQHDYSSPYTFGQGTKLEIK
notes: as for B2
[1]
  Blocking activity (IC50), STAT3-luc reporter: 11.6 µg/mL
[2]
  Kd: 3.54 nM
  koff: 0.00265 s⁻¹
  kon: 750000 M⁻¹ s⁻¹

B13: hz18A10-VH + hz18A10-VLm13 (antibody, V domains shown)
VH: EVQLVQSGAEVKKPGASVKVSCKASGYTFTTYNMDWVRQAPGQGLEWMGTIYPGNGDTSYNQKFKGRVTMTRDTSTSTVYMELSSLRSEDTAVYYCARGDLYALDYWGQGTLVTVSS
VL: DIQMTQSPSSLSASVGDRVTITCKASQSVSNDVAWYQQKPGKAPKLLIYSASRRYTGVPSRFSGSGSGTDFTFTISSLQPEDIATYYCQHDYSSPYTFGQGTKLEIK
notes: as for B2
[1]
  Blocking activity (IC50), STAT3-luc reporter: 14.2 µg/mL
[2]
  Kd: 3.99 nM
  koff: 0.00268 s⁻¹
  kon: 673000 M⁻¹ s⁻¹

B14: hz18A10-VH + hz18A10-VLm16 (antibody, V domains shown)
VH: EVQLVQSGAEVKKPGASVKVSCKASGYTFTTYNMDWVRQAPGQGLEWMGTIYPGNGDTSYNQKFKGRVTMTRDTSTSTVYMELSSLRSEDTAVYYCARGDLYALDYWGQGTLVTVSS
VL: DIQMTQSPSSLSASVGDRVTITCKASQSVSNDVAWYQQKPGKAPKLLIYRASRRYPGVPSRFSGSGSGTDFTFTISSLQPEDIATYYCQHDYSSPYTFGQGTKLEIK
notes: as for B2
[1]
  Blocking activity (IC50), STAT3-luc reporter: 9.89 µg/mL
[2]
  Kd: 1.97 nM
  koff: 0.000938 s⁻¹
  kon: 699000 M⁻¹ s⁻¹

B15: hz18A10-VH + hz18A10-VLm17 (antibody, V domains shown)
VH: EVQLVQSGAEVKKPGASVKVSCKASGYTFTTYNMDWVRQAPGQGLEWMGTIYPGNGDTSYNQKFKGRVTMTRDTSTSTVYMELSSLRSEDTAVYYCARGDLYALDYWGQGTLVTVSS
VL: DIQMTQSPSSLSASVGDRVTITCKASQSVYRDVAWYQQKPGKAPKLLIYRASNRYTGVPSRFSGSGSGTDFTFTISSLQPEDIATYYCQHDYSSPYTFGQGTKLEIK
notes: as for B2
[1]
  Blocking activity (IC50), STAT3-luc reporter: 3.47 µg/mL
[2]
  Kd: 0.45 nM
  koff: 0.000326 s⁻¹
  kon: 725000 M⁻¹ s⁻¹

B16: hz18A10-VH + hz18A10-VLm18 (antibody, V domains shown)
VH: EVQLVQSGAEVKKPGASVKVSCKASGYTFTTYNMDWVRQAPGQGLEWMGTIYPGNGDTSYNQKFKGRVTMTRDTSTSTVYMELSSLRSEDTAVYYCARGDLYALDYWGQGTLVTVSS
VL: DIQMTQSPSSLSASVGDRVTITCKASQSVYRDVAWYQQKPGKAPKLLIYRASSRYTGVPSRFSGSGSGTDFTFTISSLQPEDIATYYCQHDYSSPYTFGQGTKLEIK
notes: as for B2
[1]
  Blocking activity (IC50), STAT3-luc reporter: 4.38 µg/mL
[2]
  Kd: 0.419 nM
  koff: 0.0003 s⁻¹
  kon: 716000 M⁻¹ s⁻¹
